Laboratory results reported in the supplement of paper PMC10724198.

Experiments:
[1] = system: Saccharomyces cerevisiae; assay: protein stability index of tFT-peptide fusion in wild type (PSI (0-1 scale)); higher = more stable (slower turnover); details: genetic background: wild type
Description: (§1)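 MPS profiling in S. cerevisiae of two library types built from selected 12-aa C-degron peptides (IN1, IN2, LN1, LN3, VN2, R1-R5, W1-W3, Atg1 and Rpa12 C-termini): saturation mutagenesis libraries and C-terminal +1 capping libraries (13 aa). Each peptide is fused to the C-terminus of a sfGFP-mCherry timer, after a GGGS linker. Cells are FACS-sorted into 8 mCherry/sfGFP bins and sequenced. PSI runs from 0 (unstable) to 1 (stable), measured once in wild type and in the das1Δ or doa10Δ background.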

[2] = system: Saccharomyces cerevisiae; assay: protein stability index of tFT-peptide fusion in deletion strain of DAS1 (PSI (0-1 scale)); higher = more stable (slower turnover)
Description: as §1
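Wherever protein stability index of tFT-peptide fusion in deletion strain of DAS1 is given: PSI is a weighted mean of each variant's read distribution over the sorted stability bins, computed only for variants having over 10 reads in total.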
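Wherever protein stability index of tFT-peptide fusion in wild type is given: PSI derived as read-weighted mean over the 8 sorting bins, only variants exceeding 10 total reads kept, mCherry placed adjacent to the peptide and sfGFP distal.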

## TTSCGYKFRTNN
[1]
  protein stability index: 0.255
[2]
  protein stability index: 0.677

## PDKRNHLIKLCN
[1]
  protein stability index: 0.22
[2]
  protein stability index: 0.583

## MSMRWTFRYWVN
[1]
  protein stability index: 0.0515
[2]
  protein stability index: 0.536

## FSMRWTGRYWVN
[1]
  protein stability index: 0.0626
[2]
  protein stability index: 0.587

## RRWRVGLWRGAS
[1]
  protein stability index: 0.389
[2]
  protein stability index: 0.684

## LVVYLSCVAFIN
[1]
  protein stability index: 0.0135
[2]
  protein stability index: 0.0206

## ARWRVGLWRGAW
[1]
  protein stability index: 0.68
[2]
  protein stability index: 0.686

## CTSCGYKFDTNN
[1]
  protein stability index: 0.667
[2]
  protein stability index: 0.705

## KKHKKGQKQGIN
[1]
  protein stability index: 0.703
[2]
  protein stability index: 0.606

## LKIERQKMNHQN
[1]
  protein stability index: 0.333
[2]
  protein stability index: 0.682

## RLIQPLPVQFLP
[1]
  protein stability index: 0.62
[2]
  protein stability index: 0.57

## YKHKKGQKQKIN
[1]
  protein stability index: 0.176
[2]
  protein stability index: 0.607

## FSYRWTFRYWVN
[1]
  protein stability index: 0.0328
[2]
  protein stability index: 0.53

## ARWRVGLFRGAS
[1]
  protein stability index: 0.655
[2]
  protein stability index: 0.665

## PSLAASFRRVVG
[1]
  protein stability index: 0.665
[2]
  protein stability index: 0.656

## PSLAASFWRVVGH
[1]
  protein stability index: 0.681
[2]
  protein stability index: 0.707

## RLIQPLPVLFLN
[1]
  protein stability index: 0.0545
[2]
  protein stability index: 0.542

## LVVYKSCVACIN
[1]
  protein stability index: 0.218
[2]
  protein stability index: 0.415

## KKHKKGQKQKIND
[1]
  protein stability index: 0.666
[2]
  protein stability index: 0.658

## DVVYLSCVACIN
[1]
  protein stability index: 0.0164
[2]
  protein stability index: 0.0312

## PSLAASFARVVG
[1]
  protein stability index: 0.622
[2]
  protein stability index: 0.684

## PSLAASIWRVVG
[1]
  protein stability index: 0.143
[2]
  protein stability index: 0.69

## CPSCGYKFRTNN
[1]
  protein stability index: 0.361
[2]
  protein stability index: 0.754

## RLIQPHPVQFLN
[1]
  protein stability index: 0.0682
[2]
  protein stability index: 0.776

## VRPAVGGWRLVG
[1]
  protein stability index: 0.106
[2]
  protein stability index: 0.68

## PDKRNHLIKLFN
[1]
  protein stability index: 0.346
[2]
  protein stability index: 0.551

## KKHKKGQKQKIA
[1]
  protein stability index: 0.128
[2]
  protein stability index: 0.597

## ARWRKGLWRGAS
[1]
  protein stability index: 0.657
[2]
  protein stability index: 0.697

## ISMRWTFRYWVN
[1]
  protein stability index: 0.059
[2]
  protein stability index: 0.481

## EKILRQKMNHQN
[1]
  protein stability index: 0.137
[2]
  protein stability index: 0.681

## CTSCGYKFRTNQ
[1]
  protein stability index: 0.498
[2]
  protein stability index: 0.691

## CTSCGYKFMTNN
[1]
  protein stability index: 0.477
[2]
  protein stability index: 0.676

## CTECGYKFRTNN
[1]
  protein stability index: 0.357
[2]
  protein stability index: 0.678

## FSMRWTFRYWVL
[1]
  protein stability index: 0.0913
[2]
  protein stability index: 0.457

## RLEQPLPVQFLN
[1]
  protein stability index: 0.0758
[2]
  protein stability index: 0.574

## CTSFGYKFRTNN
[1]
  protein stability index: 0.127
[2]
  protein stability index: 0.678

## PTKRNHLIKLLN
[1]
  protein stability index: 0.114
[2]
  protein stability index: 0.582

## CTSCGYKFRTNNS
[1]
  protein stability index: 0.683
[2]
  protein stability index: 0.7

## VRGAVGGKRLVG
[1]
  protein stability index: 0.649
[2]
  protein stability index: 0.677

## RLIQPLPVVFLN
[1]
  protein stability index: 0.047
[2]
  protein stability index: 0.565

## ARWRVGLWRGAF
[1]
  protein stability index: 0.603
[2]
  protein stability index: 0.682

## RNIQPLPVQFLN
[1]
  protein stability index: 0.0759
[2]
  protein stability index: 0.61

## RLIQKLPVQFLN
[1]
  protein stability index: 0.0183
[2]
  protein stability index: 0.589

## PDKRNHLIKLLL
[1]
  protein stability index: 0.332
[2]
  protein stability index: 0.615

## VDGAVGGWRLVG
[1]
  protein stability index: 0.155
[2]
  protein stability index: 0.685

## LGVYLSCVACIN
[1]
  protein stability index: 0.0766
[2]
  protein stability index: 0.166

## PDKRNHLILLLN
[1]
  protein stability index: 0.114
[2]
  protein stability index: 0.635

## ARWFVGLWRGAS
[1]
  protein stability index: 0.345
[2]
  protein stability index: 0.699

## PDKRNHLIKLLR
[1]
  protein stability index: 0.683
[2]
  protein stability index: 0.643

## LKILRQKSNHQN
[1]
  protein stability index: 0.581
[2]
  protein stability index: 0.688

## LVVYLSCPACIN
[1]
  protein stability index: 0.469
[2]
  protein stability index: 0.513

## PSLALSFWRVVG
[1]
  protein stability index: 0.183
[2]
  protein stability index: 0.669

## CTPCGYKFRTNN
[1]
  protein stability index: 0.248
[2]
  protein stability index: 0.686

## ARWRVGLWRGRS
[1]
  protein stability index: 0.66
[2]
  protein stability index: 0.679

## DRGAVGGWRLVG
[1]
  protein stability index: 0.176
[2]
  protein stability index: 0.655

## VRGAWGGWRLVG
[1]
  protein stability index: 0.147
[2]
  protein stability index: 0.692

## CTSCGKKFRTNN
[1]
  protein stability index: 0.5
[2]
  protein stability index: 0.688

## LVVYLSMVACIN
[1]
  protein stability index: 0.0159
[2]
  protein stability index: 0.0257

## LVVYLECVACIN
[1]
  protein stability index: 0.0187
[2]
  protein stability index: 0.0239

## RLIQPLPLQFLN
[1]
  protein stability index: 0.0437
[2]
  protein stability index: 0.619

## LKILRQEMNHQN
[1]
  protein stability index: 0.437
[2]
  protein stability index: 0.672

## CTSCGYKFRMNN
[1]
  protein stability index: 0.412
[2]
  protein stability index: 0.686

## LVVYESCVACIN
[1]
  protein stability index: 0.343
[2]
  protein stability index: 0.402

## KKHKKGFKQKIN
[1]
  protein stability index: 0.0758
[2]
  protein stability index: 0.589

## RPIQPLPVQFLN
[1]
  protein stability index: 0.0515
[2]
  protein stability index: 0.593

## CTSCGYNFRTNN
[1]
  protein stability index: 0.642
[2]
  protein stability index: 0.704

## FSMRWTFSYWVN
[1]
  protein stability index: 0.0568
[2]
  protein stability index: 0.497

## VRGAVGGWRLVN
[1]
  protein stability index: 0.157
[2]
  protein stability index: 0.673

## CTSCGYKFETNN
[1]
  protein stability index: 0.656
[2]
  protein stability index: 0.707

## ARWKVGLWRGAS
[1]
  protein stability index: 0.32
[2]
  protein stability index: 0.673

## RLIQPLPVWFLN
[1]
  protein stability index: 0.0563
[2]
  protein stability index: 0.609

## EDKRNHLIKLLN
[1]
  protein stability index: 0.078
[2]
  protein stability index: 0.599

## ARWRVGLWRYAS
[1]
  protein stability index: 0.0836
[2]
  protein stability index: 0.686

## LVRYLSCVACIN
[1]
  protein stability index: 0.0691
[2]
  protein stability index: 0.316

## CTSCGYKFRTNNW
[1]
  protein stability index: 0.705
[2]
  protein stability index: 0.716

## PDKRNHLIKLAN
[1]
  protein stability index: 0.367
[2]
  protein stability index: 0.579

## VRGAVGGWALVG
[1]
  protein stability index: 0.438
[2]
  protein stability index: 0.667

## CTSCGYKFRENN
[1]
  protein stability index: 0.691
[2]
  protein stability index: 0.693

## VRGAVGGWRLWG
[1]
  protein stability index: 0.534
[2]
  protein stability index: 0.717

## REIQPLPVQFLN
[1]
  protein stability index: 0.121
[2]
  protein stability index: 0.61

## NSLAASFWRVVG
[1]
  protein stability index: 0.147
[2]
  protein stability index: 0.679

## PDKRNHLIKILN
[1]
  protein stability index: 0.137
[2]
  protein stability index: 0.663

## KKHKEGQKQKIN
[1]
  protein stability index: 0.12
[2]
  protein stability index: 0.581

## LVVYLSCMACIN
[1]
  protein stability index: 0.0207
[2]
  protein stability index: 0.0753

## PDKRNHLIKLWN
[1]
  protein stability index: 0.314
[2]
  protein stability index: 0.627

## ILIQPLPVQFLN
[1]
  protein stability index: 0.093
[2]
  protein stability index: 0.59

## PDYRNHLIKLLN
[1]
  protein stability index: 0.0727
[2]
  protein stability index: 0.607

## CTSCSYKFRTNN
[1]
  protein stability index: 0.267
[2]
  protein stability index: 0.686

## LVWYLSCVACIN
[1]
  protein stability index: 0.0133
[2]
  protein stability index: 0.0212

## PDKRNHLIKLLNM
[1]
  protein stability index: 0.145
[2]
  protein stability index: 0.659

## PSLAESFWRVVG
[1]
  protein stability index: 0.482
[2]
  protein stability index: 0.685

## RLIFPLPVQFLN
[1]
  protein stability index: 0.0304
[2]
  protein stability index: 0.553

## CTSCFYKFRTNN
[1]
  protein stability index: 0.173
[2]
  protein stability index: 0.677

## LKILRQKMNDQN
[1]
  protein stability index: 0.552
[2]
  protein stability index: 0.687

## FSMRWTFRYWEN
[1]
  protein stability index: 0.5
[2]
  protein stability index: 0.54

## FSMRWTFRYRVN
[1]
  protein stability index: 0.059
[2]
  protein stability index: 0.586

## PSLAASFWRPVG
[1]
  protein stability index: 0.656
[2]
  protein stability index: 0.677

## PDKRNHFIKLLN
[1]
  protein stability index: 0.102
[2]
  protein stability index: 0.603

## KKHKDGQKQKIN
[1]
  protein stability index: 0.0686
[2]
  protein stability index: 0.602

## PDKRNHLKKLLN
[1]
  protein stability index: 0.101
[2]
  protein stability index: 0.616

## ARWRVGLMRGAS
[1]
  protein stability index: 0.596
[2]
  protein stability index: 0.677

## PSPAASFWRVVG
[1]
  protein stability index: 0.115
[2]
  protein stability index: 0.69

## ARWRVYLWRGAS
[1]
  protein stability index: 0.378
[2]
  protein stability index: 0.618

## LKILRQKMNHRN
[1]
  protein stability index: 0.493
[2]
  protein stability index: 0.653

## TRWRVGLWRGAS
[1]
  protein stability index: 0.394
[2]
  protein stability index: 0.602

## FSMRWDFRYWVN
[1]
  protein stability index: 0.0502
[2]
  protein stability index: 0.585

## LKIVRQKMNHQN
[1]
  protein stability index: 0.197
[2]
  protein stability index: 0.696

## RLIQPLPVQFRN
[1]
  protein stability index: 0.533
[2]
  protein stability index: 0.609

## KRWRVGLWRGAS
[1]
  protein stability index: 0.443
[2]
  protein stability index: 0.681

## CTSCGYKMRTNN
[1]
  protein stability index: 0.227
[2]
  protein stability index: 0.669

## KKHKSGQKQKIN
[1]
  protein stability index: 0.106
[2]
  protein stability index: 0.603

## LVVYLSCVACVN
[1]
  protein stability index: 0.0169
[2]
  protein stability index: 0.0193

## LVVYLSCVAHIN
[1]
  protein stability index: 0.0148
[2]
  protein stability index: 0.0209

## ARWRVGLWRCAS
[1]
  protein stability index: 0.114
[2]
  protein stability index: 0.674

## ARWRVMLWRGAS
[1]
  protein stability index: 0.305
[2]
  protein stability index: 0.705

## KKHYKGQKQKIN
[1]
  protein stability index: 0.0621
[2]
  protein stability index: 0.618

## RLIQPLPFQFLN
[1]
  protein stability index: 0.0405
[2]
  protein stability index: 0.624
